Assays:
[1] = target: NT-proBNP (UniProt P16860 27-102); experiment: aptamer-functionalised rGO-FET; 0.01x PBS with Tween; response 10 fg/mL to 100 pg/mL; LOD 100 fg/mL in artificial saliva; 0.01x PBS with Tween (1x PBS: 2.7 mM KCl, 137 mM NaCl, 10 mM phosphate, pH 7.4); LOD in artificial saliva; surface blocked with ethanolamine and BSA; temperature not stated; conditions: protein: commercial
[2] = target: proBNP (UniProt P16860 27-134); experiment: aptamer-functionalised CVD graphene FET (GFET); after long-term storage; unexpected concentration-dependent response; 0.01x PBS with Tween (1x PBS: 2.7 mM KCl, 137 mM NaCl, 10 mM phosphate, pH 7.4); LOD in artificial saliva; surface blocked with ethanolamine and BSA; temperature not stated; conditions: protein: commercial
Chain of proBNP (P16860 27-134): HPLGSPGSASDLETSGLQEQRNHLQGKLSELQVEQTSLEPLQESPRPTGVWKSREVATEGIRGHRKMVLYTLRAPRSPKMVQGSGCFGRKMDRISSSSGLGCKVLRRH

Chain of NT-proBNP (P16860 27-102): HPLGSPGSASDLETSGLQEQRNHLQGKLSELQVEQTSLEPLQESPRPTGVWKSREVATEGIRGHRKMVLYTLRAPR

B1: N20a aptamer (ssDNA)
DNA: GGCAGGAAGACAAACAGGTCGTAGTGGAAACTGTCCACCGTAGACCGGTTATCTAGTGGTCTGTGGTGCTGT
modifications: 5'-NH2
binding result [1]: binds | binding result [2]: binds

— paper PMC11117807, “Comparative Study of Field-Effect Transistors Based on Graphene Oxide and CVD Graphene in Highly Sensitive NT-proBNP Aptasensors”
